Measurements from US20170000909A1, “ENZYME DIRECTED ASSEMBLY OF PARTICLE THERANOSTICS” (The Regents of the University of California, priority 2011, published 2017).
Where no end group is shown, it is not given here.

Target: T1, MMP-9 (Homo sapiens, UniProt P14780)
T1 construct: purchased Calbiochem
Test: MMP-9 cleavage efficiency assay (RP-HPLC)
Format: biochemical
Conditions: 120 μM, MMP-9 24 hrs, disappearance of peak at 29 minutes
Method: To 5 μL of enzyme was added 0.4 μL of a 24 mM π-aminophenyl mercuric acetate solution in freshly prepared 0.1 M NaOH. The enzyme solution was heated at 37° C. for 2 hrs prior to use.
120 μM of M1 (with respect to peptide) and 120 μM of Peptide-1 were treated with MMP-9 (100 μU, 1.25 μL) for 24 hrs. The control was performed using 120 μM of Peptide-1 without treatment with MMP-9. These samples were then analyzed by RP-HPLC following inactivation of MMP-9 at 65° C. for 20 mins (FIG. 21A). Peak A is the intact, full length Peptide-1 without treatment with MMP-9, and Peak B is the large fragment of Peptide-1 cleaved by MMP-9 as confirmed by MALDI-MS shown in FIG. 21B, left.

T1 sequence (P14780 107-707 limits assumed): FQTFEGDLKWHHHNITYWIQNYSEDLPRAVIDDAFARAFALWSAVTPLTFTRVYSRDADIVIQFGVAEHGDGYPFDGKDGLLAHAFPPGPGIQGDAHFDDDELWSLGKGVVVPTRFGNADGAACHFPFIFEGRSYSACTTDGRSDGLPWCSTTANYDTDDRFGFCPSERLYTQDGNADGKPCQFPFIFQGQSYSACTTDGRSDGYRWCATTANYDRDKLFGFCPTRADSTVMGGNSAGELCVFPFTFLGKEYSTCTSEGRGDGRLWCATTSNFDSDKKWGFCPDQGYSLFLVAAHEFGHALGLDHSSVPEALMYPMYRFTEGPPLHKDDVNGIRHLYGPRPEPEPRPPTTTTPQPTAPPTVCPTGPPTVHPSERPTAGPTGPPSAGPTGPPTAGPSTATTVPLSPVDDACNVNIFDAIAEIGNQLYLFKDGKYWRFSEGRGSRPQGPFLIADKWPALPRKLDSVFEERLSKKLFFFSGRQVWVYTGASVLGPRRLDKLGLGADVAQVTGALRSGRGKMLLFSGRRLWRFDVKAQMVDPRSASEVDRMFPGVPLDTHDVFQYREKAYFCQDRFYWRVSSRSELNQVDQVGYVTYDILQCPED

GPLGLAGKWAAAAKAAAAK [Peptide-1]
MMP-9 cleavage efficiency: quantitative
